Source: paper PMC9437721, “Identification and characterization of two Isatis indigotica O-methyltransferases methylating C-glycosylflavonoids” (Horticulture Research, 2022)

Assays:
[1] = substrate: O=c1cc(-c2ccc(O)c(O)c2)oc2cc(O)cc(O)c12; assay: O-methyltransferase assay, UPLC, Michaelis-Menten fit; format: biochemical, Isatis tinctoria; details: 480 μM SAM, Tris-HCl pH 8.0, 45 °C
Text: (§1) O-methyltransferase assay, UPLC, Michaelis-Menten fit on IiOMT1

[2] = substrate: O=c1cc(-c2ccc(O)c(O)c2)oc2cc(O)c([C@@H]3O[C@H](CO)[C@@H](O)[C@H](O)[C@H]3O)c(O)c12; assay: as above; format: biochemical, Isatis tinctoria; details: 480 μM SAM, Tris-HCl pH 8.0, 45 °C
Text: as §1

B1: IiOMT1 (Isatis tinctoria) (protein)
chain: MATTTTEATKTSTNGEDKQSQNLRHQEVGHKSLLQSDDLYQYILETSVYPREPESMKELREVTAKHPWNIMTTSADEGQFLNMLIKLINAKNTMEIGVYTGYSLLATALALPEDGKILAMDVNRENYELGLPIIEKAGVAHKIDFREGPALPVLDQLVADEKNHGTYDFIFVDADKDNYINYHKRLIDLVKVGGVIGYDNTLWNGSVVAAPDAPMRKYVRYYRDFVLELNKALAADPRIEICMLPVGDGITICRRIN
notes: N-terminal His6-SUMO tag kept (pE-SUMO), E. coli Rosetta (DE3), Ni-NTA
Km [1]: 113.5 ± 10.41 µM | kcat [1]: 0.413 s⁻¹ | kcat/Km [1]: 3650 M⁻¹ s⁻¹ | Km [2]: 75.56 ± 8.21 µM | kcat [2]: 0.304 s⁻¹ | kcat/Km [2]: 4040 M⁻¹ s⁻¹
